42 molecules from paper PMC9352680, “A comprehensive thermodynamic model for RNA binding by the Saccharomyces cerevisiae Pumilio protein PUF4” can be followed below.

Usually Kd stands for the equilibrium constant for the complex coming apart. A high value points to a looser complex.

Bounds are passed on as bounds.

The data set deals with T1, PUF4 RNA-binding domain (Saccharomyces cerevisiae, UniProt P25339 537-888).
T1 sequence: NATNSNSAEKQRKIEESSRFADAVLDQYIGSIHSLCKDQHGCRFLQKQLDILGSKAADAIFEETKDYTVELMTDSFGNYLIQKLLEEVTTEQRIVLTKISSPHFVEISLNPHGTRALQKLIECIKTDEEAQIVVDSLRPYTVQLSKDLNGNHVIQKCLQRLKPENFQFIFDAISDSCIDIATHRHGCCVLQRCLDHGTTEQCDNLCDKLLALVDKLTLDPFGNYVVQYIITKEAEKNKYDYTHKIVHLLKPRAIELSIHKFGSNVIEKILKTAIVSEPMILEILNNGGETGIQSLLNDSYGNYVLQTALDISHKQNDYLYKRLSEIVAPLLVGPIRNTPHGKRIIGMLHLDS
As to the kind of experiment: Mg; RNA-MaP; 20 mM Na-HEPES pH 7.4, 30 mM KOAc, 0.75 mM MgCl2, 0.1% Tween-20, 5% glycerol, 0.1 mg/mL BSA, 2 mM DTT; 25 C; 0.0125-409.6 nM protein. The conditions noted are these: tags: N-His6-TEV cleaved; C-SNAP kept, Cy3B-labelled; label: tethered on chip by stalled RNA polymerase.

B1: Id_iii_S2_P3E.7_K3.3_C3.3_[C-2G]_H3.3_A3.1_F3.1_T3.2 (ssRNA)
RNA: UUUGAUUAAUAUGAUAUCGUUCUUUCUUGUACACUAUAUAUUCUUUCUCGAUAUCAUAUUAAUCUUU
The molecule B1 registered a Kd of 0.454 nM.

B2: Id_iii_S2_P3E.9_K3.5_C3.3_[T-1A]_H3.1_A3.2_F3.2_T3.2 (ssRNA)
RNA: UUUGAUUAAUAUGAUAUCGUUCUUUCUUCAUGUAAAAAUAUUCUUUCUCGAUAUCAUAUUAAUCUUU
B2 came in with a Kd of 28.6 nM.

B3: Id_iii_S2_P3E.9_K3.5_C3.3_H3.1_A3.2_F3.2_T3.2_[A10G] (ssRNA)
RNA: UUUGAUUAAUAUGAUAUCGUUCUUUCUUCUUGUAAAAAUGUUCUUUCUCGAUAUCAUAUUAAUCUUU
Take B3: the Kd was 661 nM.

B4: Id_iii_S2_P3E.9_K3.5_C3.3_[T-1G]_H3.1_A3.2_F3.2_T3.2 (ssRNA)
RNA: UUUGAUUAAUAUGAUAUCGUUCUUUCUUCGUGUAAAAAUAUUCUUUCUCGAUAUCAUAUUAAUCUUU
In the case of B4, binding was put at a Kd of 32.2 nM.

B5: Id_iii_S2_P3E.8_K3.4_C3.3_[T-3A]_H3.1_A3.2_F3.1_T3.2 (ssRNA)
RNA: UUUGAUUAAUAUGAUAUCGUUCUUUCUACUUGUAAAUAUAUUCUUUCUCGAUAUCAUAUUAAUCUUU
B5 showed a Kd of 3.74 nM.

B6: Id_iii_S2_P3E.8_K3.4_C3.3_[T-3C]_H3.1_A3.2_F3.1_T3.2 (ssRNA)
RNA: UUUGAUUAAUAUGAUAUCGUUCUUUCUCCUUGUAAAUAUAUUCUUUCUCGAUAUCAUAUUAAUCUUU
The molecule B6 gave a Kd of 2.54 nM.

B7: Id_iii_S2_P3E.8_K3.4_C3.3_[C-2A]_H3.1_A3.2_F3.1_T3.2 (ssRNA)
RNA: UUUGAUUAAUAUGAUAUCGUUCUUUCUUAUUGUAAAUAUAUUCUUUCUCGAUAUCAUAUUAAUCUUU
The molecule B7 returned a Kd of 26.3 nM.

B8: Id_iii_S2_P3E.7_K3.3_C3.3_[T-1C]_H3.3_A3.1_F3.1_T3.2 (ssRNA)
RNA: UUUGAUUAAUAUGAUAUCGUUCUUUCUUCCACACUAUAUAUUCUUUCUCGAUAUCAUAUUAAUCUUU
Consider B8, for which the Kd was determined as 321 nM.

B9: Id_iii_S2_P3E.9_K3.5_C3.3_[T-1C]_H3.1_A3.2_F3.2_T3.2 (ssRNA)
RNA: UUUGAUUAAUAUGAUAUCGUUCUUUCUUCCUGUAAAAAUAUUCUUUCUCGAUAUCAUAUUAAUCUUU
Take B9: the Kd came to 11.9 nM.

B10: Id_iii_S2_P3E.7_K3.3_C3.3_[T-1G]_H3.3_A3.1_F3.1_T3.2 (ssRNA)
RNA: UUUGAUUAAUAUGAUAUCGUUCUUUCUUCGACACUAUAUAUUCUUUCUCGAUAUCAUAUUAAUCUUU
With B10, the Kd is 430 nM.

B11: Id_iii_S2_P3E.7_K3.3_C3.3_H3.3_A3.1_F3.1_T3.2_[A10C] (ssRNA)
RNA: UUUGAUUAAUAUGAUAUCGUUCUUUCUUCUACACUAUAUCUUCUUUCUCGAUAUCAUAUUAAUCUUU
Molecule B11 gave a Kd of 495 nM.

B12: Id_iii_S2_P4E.5_K4.1_C4.3_[T-3C]_H4.1_A4.1_F4.1_T4.2 (ssRNA)
RNA: UUUGAUUAAUAUGAUAUCGUUCUUUCUCCUUGUAUAUUAGUUUCUUUCUCGAUAUCAUAUUAAUCUUU
In the case of B12, the Kd was determined as 0.191 nM.

B13: Id_iii_S2_P4E.7_K4.3_C4.3_[T-1C]_H4.3_A4.1_F4.1_T4.2 (ssRNA)
RNA: UUUGAUUAAUAUGAUAUCGUUCUUUCUUCCACACUAUUAGUUUCUUUCUCGAUAUCAUAUUAAUCUUU
B13 came in with a Kd greater than 2300 nM.

B14: Id_iii_S2_P4E.6_K4.2_C4.3_[T-3C]_H4.2_A4.1_F4.1_T4.2 (ssRNA)
RNA: UUUGAUUAAUAUGAUAUCGUUCUUUCUCCUUAUAUAUUAGUUUCUUUCUCGAUAUCAUAUUAAUCUUU
Molecule B14 came in with a Kd of 3.56 nM.

B15: Id_iii_S2_P4E.7_K4.3_C4.3_H4.3_A4.1_F4.1_T4.2_[G10T] (ssRNA)
RNA: UUUGAUUAAUAUGAUAUCGUUCUUUCUUCUACACUAUUAUUUUCUUUCUCGAUAUCAUAUUAAUCUUU
As for B15, the Kd worked out at 486 nM.

B16: Id_iii_S2_P4E.7_K4.3_C4.3_H4.3_A4.1_F4.1_T4.2_[T11C] (ssRNA)
RNA: UUUGAUUAAUAUGAUAUCGUUCUUUCUUCUACACUAUUAGCUUCUUUCUCGAUAUCAUAUUAAUCUUU
Molecule B16 had a Kd greater than 2300 nM.

B17: Id_iii_S2_P4E.6_K4.2_C4.3_[C-2G]_H4.2_A4.1_F4.1_T4.2 (ssRNA)
RNA: UUUGAUUAAUAUGAUAUCGUUCUUUCUUGUUAUAUAUUAGUUUCUUUCUCGAUAUCAUAUUAAUCUUU
Turning to B17, the dissociation constant Kd came out at 13.3 nM.

B18: Id_iii_S2_P4E.5_K4.1_C4.3_H4.1_A4.1_F4.1_T4.2_[G10T] (ssRNA)
RNA: UUUGAUUAAUAUGAUAUCGUUCUUUCUUCUUGUAUAUUAUUUUCUUUCUCGAUAUCAUAUUAAUCUUU
The molecule B18 yielded a Kd of 0.203 nM.

B19: Id_iii_S2_P4E.6_K4.2_C4.3_H4.2_A4.1_F4.1_T4.2_[G10C] (ssRNA)
RNA: UUUGAUUAAUAUGAUAUCGUUCUUUCUUCUUAUAUAUUACUUUCUUUCUCGAUAUCAUAUUAAUCUUU
The molecule B19 registered a Kd of 5.27 nM.

B20: Id_iii_S2_P4E.8_K4.4_C4.3_[C-2G]_H4.1_A4.2_F4.1_T4.2 (ssRNA)
RNA: UUUGAUUAAUAUGAUAUCGUUCUUUCUUGUUGUAUUUUAGUUUCUUUCUCGAUAUCAUAUUAAUCUUU
With B20, the Kd stood at 1.45 nM.

B21: Id_iii_S2_P4E.5_K4.1_C4.3_H4.1_A4.1_F4.1_T4.2_[T11C] (ssRNA)
RNA: UUUGAUUAAUAUGAUAUCGUUCUUUCUUCUUGUAUAUUAGCUUCUUUCUCGAUAUCAUAUUAAUCUUU
B21 showed a Kd of 0.401 nM.

B22: Id_iii_S2_P4E.6_K4.2_C4.3_H4.2_A4.1_F4.1_T4.2_[G10T] (ssRNA)
RNA: UUUGAUUAAUAUGAUAUCGUUCUUUCUUCUUAUAUAUUAUUUUCUUUCUCGAUAUCAUAUUAAUCUUU
Molecule B22 displayed a Kd of 3.84 nM.

B23: Id_iii_S2_P4E.5_K4.1_C4.3_[C-2G]_H4.1_A4.1_F4.1_T4.2 (ssRNA)
RNA: UUUGAUUAAUAUGAUAUCGUUCUUUCUUGUUGUAUAUUAGUUUCUUUCUCGAUAUCAUAUUAAUCUUU
In the case of B23, binding was put at a Kd of 0.508 nM.

B24: Id_iii_S2_P4E.8_K4.4_C4.3_[C-2T]_H4.1_A4.2_F4.1_T4.2 (ssRNA)
RNA: UUUGAUUAAUAUGAUAUCGUUCUUUCUUUUUGUAUUUUAGUUUCUUUCUCGAUAUCAUAUUAAUCUUU
For the molecule B24, the Kd was 0.936 nM.

B25: Id_iii_S2_P4E.5_K4.1_C4.3_H4.1_A4.1_F4.1_T4.2_[G10A] (ssRNA)
RNA: UUUGAUUAAUAUGAUAUCGUUCUUUCUUCUUGUAUAUUAAUUUCUUUCUCGAUAUCAUAUUAAUCUUU
For B25, binding was characterised by a dissociation constant (Kd) of 0.37 nM.

B26: Id_iii_S2_P4E.5_K4.1_C4.3_[C-2A]_H4.1_A4.1_F4.1_T4.2 (ssRNA)
RNA: UUUGAUUAAUAUGAUAUCGUUCUUUCUUAUUGUAUAUUAGUUUCUUUCUCGAUAUCAUAUUAAUCUUU
Take B26: the affinity, expressed as Kd, was 0.601 nM.

B27: Id_iii_S2_P4E.6_K4.2_C4.3_[T-1A]_H4.2_A4.1_F4.1_T4.2 (ssRNA)
RNA: UUUGAUUAAUAUGAUAUCGUUCUUUCUUCAUAUAUAUUAGUUUCUUUCUCGAUAUCAUAUUAAUCUUU
Turning to B27, the Kd was 6.83 nM.

B28: Id_iii_S2_P4E.7_K4.3_C4.3_H4.3_A4.1_F4.1_T4.2_[G10C] (ssRNA)
RNA: UUUGAUUAAUAUGAUAUCGUUCUUUCUUCUACACUAUUACUUUCUUUCUCGAUAUCAUAUUAAUCUUU
The molecule B28 showed a Kd of 494 nM.

B29: Id_iii_S2_P4E.7_K4.3_C4.3_[T-1A]_H4.3_A4.1_F4.1_T4.2 (ssRNA)
RNA: UUUGAUUAAUAUGAUAUCGUUCUUUCUUCAACACUAUUAGUUUCUUUCUCGAUAUCAUAUUAAUCUUU
B29 came in with a Kd greater than 2300 nM.

B30: Id_iii_S2_P4E.8_K4.4_C4.3_[T-3C]_H4.1_A4.2_F4.1_T4.2 (ssRNA)
RNA: UUUGAUUAAUAUGAUAUCGUUCUUUCUCCUUGUAUUUUAGUUUCUUUCUCGAUAUCAUAUUAAUCUUU
In turn, B30 had a Kd of 0.923 nM.

B31: Id_iii_S2_P4E.5_K4.1_C4.3_[C-2T]_H4.1_A4.1_F4.1_T4.2 (ssRNA)
RNA: UUUGAUUAAUAUGAUAUCGUUCUUUCUUUUUGUAUAUUAGUUUCUUUCUCGAUAUCAUAUUAAUCUUU
With B31, binding was characterised by a dissociation constant (Kd) of 1.08 nM.

B32: Id_iii_S2_P4E.5_K4.1_C4.3_[T-1C]_H4.1_A4.1_F4.1_T4.2 (ssRNA)
RNA: UUUGAUUAAUAUGAUAUCGUUCUUUCUUCCUGUAUAUUAGUUUCUUUCUCGAUAUCAUAUUAAUCUUU
B32 showed a Kd of 0.205 nM.

B33: Id_iii_S2_P4E.8_K4.4_C4.3_[C-2A]_H4.1_A4.2_F4.1_T4.2 (ssRNA)
RNA: UUUGAUUAAUAUGAUAUCGUUCUUUCUUAUUGUAUUUUAGUUUCUUUCUCGAUAUCAUAUUAAUCUUU
Regarding B33, binding was put at a Kd of 1.76 nM.

B34: Id_iii_S2_P4E.5_K4.1_C4.3_H4.1_A4.1_F4.1_T4.2_[G10C] (ssRNA)
RNA: UUUGAUUAAUAUGAUAUCGUUCUUUCUUCUUGUAUAUUACUUUCUUUCUCGAUAUCAUAUUAAUCUUU
B34 returned a Kd of 0.519 nM.

B35: Id_iii_S2_P4E.6_K4.2_C4.3_[C-2T]_H4.2_A4.1_F4.1_T4.2 (ssRNA)
RNA: UUUGAUUAAUAUGAUAUCGUUCUUUCUUUUUAUAUAUUAGUUUCUUUCUCGAUAUCAUAUUAAUCUUU
As to B35, the Kd is 20.2 nM.

B36: Id_iii_S2_P4E.6_K4.2_C4.3_[T-1G]_H4.2_A4.1_F4.1_T4.2 (ssRNA)
RNA: UUUGAUUAAUAUGAUAUCGUUCUUUCUUCGUAUAUAUUAGUUUCUUUCUCGAUAUCAUAUUAAUCUUU
In turn, B36 returned a Kd of 10.9 nM.

B37: Id_iii_S2_P4E.5_K4.1_C4.3_[T-1G]_H4.1_A4.1_F4.1_T4.2 (ssRNA)
RNA: UUUGAUUAAUAUGAUAUCGUUCUUUCUUCGUGUAUAUUAGUUUCUUUCUCGAUAUCAUAUUAAUCUUU
Molecule B37 returned a Kd of 0.201 nM.

B38: Id_iii_S2_P4E.6_K4.2_C4.3_H4.2_A4.1_F4.1_T4.2_[G10A] (ssRNA)
RNA: UUUGAUUAAUAUGAUAUCGUUCUUUCUUCUUAUAUAUUAAUUUCUUUCUCGAUAUCAUAUUAAUCUUU
Regarding B38, the Kd came to 10.7 nM.

B39: Ib_S1_P5E.1_K5.1_C5.1_H5.1_[A4T]_A5.1_[A7T]_F5.1_T5.1 (ssRNA)
RNA: UCUCUUUGUUUUUUUAUCUCUU
B39: the Kd was 142 nM.

B40: Ib_S1_P5E.1_K5.1_C5.1_H5.1_A5.1_[T5G]_[T6C]_F5.1_T5.1 (ssRNA)
RNA: UCUCUUUGUAGCAUUAUCUCUU
Molecule B40 yielded a dissociation constant (Kd) of 15.3 nM.

B41: Ib_S1_P5E.1_K5.1_C5.1_H5.1_[A4T]_A5.1_[A7G]_F5.1_T5.1 (ssRNA)
RNA: UCUCUUUGUUUUGUUAUCUCUU
As to B41, the Kd turned out to be 426 nM.

B42: Ib_S1_P5E.1_K5.1_C5.1_H5.1_[A4C]_A5.1_[A7T]_F5.1_T5.1 (ssRNA)
RNA: UCUCUUUGUCUUUUUAUCUCUU
In the case of B42, the Kd is 113 nM.
